Tested on: Fragaria×ananassa cv. 'Hongyan' fruits
Assay: Transient expression in strawberry fruit (coexpression with PAP1)
Assay type: in vivo
Protocol: A strawberry cultivar, Fragaria×ananassa cv. ‘Hongyan’ (The Beijing Agricultural Technology Extension Station) with fruits turning red were chosen as subjects. A single colony of Agrobacterium strain EHA105 with pBI121-FOMT construct was inoculated, and the pellet were centrifuged and washed with infiltration buffer (50 mM Mes, pH 5.6, 2 mM Na3PO4, 0.5% glucose (w/v), and 100 mM acetosyringone) according to Hoffmann et al. (Hoffmann, T., G. Kalinowski, and W. Schwab, RNAi-induced silencing of gene expression in strawberry fruit (Fragaria×ananassa) by agroinfiltration: a rapid assay for gene function analysis. Plant Journal, 2006. 48(5): p. 818-826.). The bacterial suspension was diluted with infiltration buffer to adjust the inoculum concentration to OD600 0.1-0.3. A syringe infiltration method was used to transient transform strawberry fruits. The infiltrated fruits were harvested after four days for anthocyanin content analyses as follow. […] The MS conditions were listed as follow: negative-ion (NI) mode; capillary voltage of 3.5 kV; a nebulization pressure of 241.3 kPa; and a gas (N2) temperature of 350° C. with flow rate of 6.0 L min^−1 Capillary offset voltage was 77.2 V. MS spectra were recorded over the range from m/z 50-1000.

B1: PsFOMT: flavonoid O-methyltransferase from tree peony Paeonia suffruticosa cv. 'Gunpohden', SEQ ID NO: 3; recombinant MBP fusion protein (protein, listed as Paeonia suffruticosa)
chain: MAESDRKGILKSEALLKYILETSVYPREHEQLKQLRQATVDKYKYWSVMNVPADEGQFLSMLLKIMNAKKTIEVGVFTGYSLLTAALALPTDAKITAIDPDGEAYETGLPFIKKAGVEHKINYIQADAMSVLDDLVTNGKEEGSFDFAFVDADKENYAKYHEPLMKLVKIGGIIGYDNTLWFGSVALSDGDEMKEFQEKGRRIFREFNTFLAADPRIELAHISIGDGLALCRRLY
modifications: MBP fusion
notes: recombinant MBP fusion protein
- proportion of methylated products (Pn type) to precursors (Cy type): more than that of PtFOMT

From US20160177324A1, “NOVEL PROTEIN AND GENE RELATED TO FLAVONOID O-METHYLTRANSFERASE (FOMT) AND THEIR USES THEREFORE” (INSTITUTE OF BOTANY, THE CHINESE ACADEMY OF SCIENCES, priority 2013, published 2016)
